Series [1] concerns Saccharomyces cerevisiae. The series is described as follows: protein stability index of tFT-peptide fusion in deletion strain of DOA10 (PSI (0-1 scale)); higher = more stable (slower turnover). As for the experimental part:
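MPS profiling in S. cerevisiae of two library types built from selected 12-aa C-degron peptides (IN1, IN2, LN1, LN3, VN2, R1-R5, W1-W3, Atg1 and Rpa12 C-termini): saturation mutagenesis libraries and C-terminal +1 capping libraries (13 aa). Each peptide is fused to the C-terminus of a sfGFP-mCherry timer, after a GGGS linker. Cells are FACS-sorted into 8 mCherry/sfGFP bins and sequenced. PSI runs from 0 (unstable) to 1 (stable), measured once in wild type and in the das1Δ or doa10Δ background.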

Series [2] concerns Saccharomyces cerevisiae. The series is described as follows: protein stability index of tFT-peptide fusion in wild type (PSI (0-1 scale)); higher = more stable (slower turnover). The following applies: genetic background: wild type.
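Throughout, for protein stability index of tFT-peptide fusion in deletion strain of DOA10: PSI per variant is the weighted mean of its sequencing read distribution over the sorted stability bins, counting only variants with over 10 reads summed across bins.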
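Throughout, for protein stability index of tFT-peptide fusion in wild type: PSI derived as read-weighted mean over the 8 sorting bins, only variants exceeding 10 total reads kept, mCherry placed adjacent to the peptide and sfGFP distal.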

In the case of GLYMCIVGCWFR, the protein stability index with Saccharomyces cerevisiae [1] is 0.364; in the series with Saccharomyces cerevisiae [2], 0.214.

Regarding GLYMCSLGCWFR, the protein stability index in the series with Saccharomyces cerevisiae [1] was 0.658; in the series on Saccharomyces cerevisiae [2] it was 0.283.

With GLYMCSMGCWFR, the results for the protein stability index in the series with Saccharomyces cerevisiae [1] and in the series with Saccharomyces cerevisiae [2] were 0.676 and 0.321, respectively.

For GLYMCSVACWFR, the protein stability index is 0.441 with Saccharomyces cerevisiae [1] and 0.228 in the series with Saccharomyces cerevisiae [2].

For GLYMCSVGCAFR, the results for the protein stability index with Saccharomyces cerevisiae [1] and in the series with Saccharomyces cerevisiae [2] were 0.629 and 0.614, respectively.

For the sequence GLYMCSVGCEFR, the protein stability index with Saccharomyces cerevisiae [1] amounted to 0.625; in the series with Saccharomyces cerevisiae [2], 0.594.

As to GLYMCSVGCQFR, the protein stability index stood at 0.647 with Saccharomyces cerevisiae [1] and 0.618 in the series with Saccharomyces cerevisiae [2].

GLYMCSVGCRFR: the protein stability index in the series with Saccharomyces cerevisiae [1] turned out to be 0.654; in the series with Saccharomyces cerevisiae [2] it was 0.625.

Regarding GLYMCSVGCWFE, the protein stability index with Saccharomyces cerevisiae [1] was determined as 0.512; in the series on Saccharomyces cerevisiae [2], 0.474.

Consider GLYMCSVGCWFG, for which the protein stability index is 0.478 in the series on Saccharomyces cerevisiae [1] and 0.456 with Saccharomyces cerevisiae [2].

For the sequence GLYMCSVGCWFP, the protein stability index in the series with Saccharomyces cerevisiae [1] is 0.636; in the series with Saccharomyces cerevisiae [2], 0.607.

Take GLYMCSVGCWFRG: the protein stability index in the series on Saccharomyces cerevisiae [1] was found to be 0.635; in the series with Saccharomyces cerevisiae [2] it was 0.334.

On to GLYMCSVGCWFRP, for which the protein stability index in the series on Saccharomyces cerevisiae [1] was determined as 0.62; in the series on Saccharomyces cerevisiae [2], 0.287.

With GLYMCSVGCWFRQ, the protein stability index is 0.182 in the series with Saccharomyces cerevisiae [1] and 0.113 in the series on Saccharomyces cerevisiae [2].

Take GLYMCSVGCWFRS: the protein stability index in the series with Saccharomyces cerevisiae [1] was 0.521; in the series on Saccharomyces cerevisiae [2] it was 0.267.

GLYMCSVGCWFRW: the protein stability index turned out to be 0.621 in the series on Saccharomyces cerevisiae [1] and 0.231 in the series on Saccharomyces cerevisiae [2].

On to GLYMCSVGCWGR, for which the protein stability index is 0.659 with Saccharomyces cerevisiae [1] and 0.625 in the series with Saccharomyces cerevisiae [2].

GLYMCSVGCWNR: the figures for the protein stability index with Saccharomyces cerevisiae [1] and with Saccharomyces cerevisiae [2] were 0.64 and 0.618, respectively.

In the case of GLYMCSVGCYFR, the values for the protein stability index in the series with Saccharomyces cerevisiae [1] and in the series on Saccharomyces cerevisiae [2] were 0.638 and 0.425, respectively.

For GLYMCSVGDWFR, the values for the protein stability index in the series with Saccharomyces cerevisiae [1] and with Saccharomyces cerevisiae [2] were 0.689 and 0.677, respectively.

Regarding GLYMCSVGIWFR, the protein stability index in the series on Saccharomyces cerevisiae [1] stood at 0.409; in the series on Saccharomyces cerevisiae [2], 0.165.

With GLYMCSVGMWFR, the protein stability index with Saccharomyces cerevisiae [1] is 0.577; with Saccharomyces cerevisiae [2] it was 0.307.

For the sequence GLYMCSVKCWFR, the protein stability index in the series on Saccharomyces cerevisiae [1] amounted to 0.462; with Saccharomyces cerevisiae [2] it was 0.415.

GLYMCSYGCWFR: the protein stability index in the series with Saccharomyces cerevisiae [1] is 0.677; in the series on Saccharomyces cerevisiae [2] it was 0.299.

In the case of GSYMCSVGCWFR, the protein stability index was determined as 0.678 in the series with Saccharomyces cerevisiae [1] and 0.411 with Saccharomyces cerevisiae [2].

As for ILVSLPILLFFR, the protein stability index is 0.545 in the series with Saccharomyces cerevisiae [1] and 0.111 in the series on Saccharomyces cerevisiae [2].

In the case of KLVSLPILLFFR, the protein stability index in the series with Saccharomyces cerevisiae [1] is 0.612; in the series on Saccharomyces cerevisiae [2] it was 0.0816.

On to RETRLDAIYFRI, for which the values for the protein stability index in the series with Saccharomyces cerevisiae [1] and with Saccharomyces cerevisiae [2] were 0.667 and 0.545, respectively.

RKTRLDAIYFRI: the protein stability index with Saccharomyces cerevisiae [1] worked out at 0.628; in the series with Saccharomyces cerevisiae [2], 0.49.

Take RSARVLLPLYFR: the protein stability index in the series with Saccharomyces cerevisiae [1] worked out at 0.687; in the series on Saccharomyces cerevisiae [2] it was 0.336.

On to RSLRPLLPLYFR, for which the protein stability index with Saccharomyces cerevisiae [1] was found to be 0.688; in the series with Saccharomyces cerevisiae [2], 0.316.

RSLRVLCPLYFR: the protein stability index came out at 0.652 in the series with Saccharomyces cerevisiae [1] and 0.305 with Saccharomyces cerevisiae [2].

For RSLRVLFPLYFR, the protein stability index with Saccharomyces cerevisiae [1] worked out at 0.684; with Saccharomyces cerevisiae [2], 0.196.

In the case of RSLRVLKPLYFR, the protein stability index in the series on Saccharomyces cerevisiae [1] is 0.675; with Saccharomyces cerevisiae [2], 0.304.

Regarding RSLRVLLFLYFR, the protein stability index in the series on Saccharomyces cerevisiae [1] came to 0.45; with Saccharomyces cerevisiae [2], 0.21.

With RSLRVLLPLAFR, the protein stability index with Saccharomyces cerevisiae [1] stood at 0.652; in the series on Saccharomyces cerevisiae [2], 0.37.

Turning to RSLRVLLPLYCR, the protein stability index was determined as 0.457 in the series with Saccharomyces cerevisiae [1] and 0.266 in the series with Saccharomyces cerevisiae [2].

Turning to RSLRVLLPLYFC, the protein stability index turned out to be 0.175 in the series with Saccharomyces cerevisiae [1] and 0.0775 in the series with Saccharomyces cerevisiae [2].

In the case of RSLRVLLPLYFRR, the figures for the protein stability index with Saccharomyces cerevisiae [1] and with Saccharomyces cerevisiae [2] were 0.675 and 0.315, respectively.

Take RSLRVLLPLYFRW: the results for the protein stability index in the series with Saccharomyces cerevisiae [1] and in the series on Saccharomyces cerevisiae [2] were 0.677 and 0.215, respectively.

Take RSLRVLLPLYFV: the results for the protein stability index in the series on Saccharomyces cerevisiae [1] and in the series on Saccharomyces cerevisiae [2] were 0.428 and 0.25, respectively.

For the sequence RSLRVLLPLYFW, the protein stability index came out at 0.589 in the series with Saccharomyces cerevisiae [1] and 0.339 in the series with Saccharomyces cerevisiae [2].

In the case of RSLRVLLPLYYR, the protein stability index stood at 0.657 in the series on Saccharomyces cerevisiae [1] and 0.375 with Saccharomyces cerevisiae [2].

For the sequence RSLRVLMPLYFR, the protein stability index with Saccharomyces cerevisiae [1] was found to be 0.697; in the series on Saccharomyces cerevisiae [2], 0.254.

In the case of RSLRVWLPLYFR, the protein stability index with Saccharomyces cerevisiae [1] amounted to 0.693; in the series on Saccharomyces cerevisiae [2] it was 0.166.
